B1: Steroid hormone receptor ERR2, residues 100 to 176; numbered along this chain, O95718 (parent)
chain: KRLCLVCGDIASGYHYGVASCEACKAFFKRTIQGNIEYSCPATNECEITKRRRKSCQACRFMKCLKVGMLKEGVRLD

± gives the uncertainty stated by the source.

The variants in the data set derive from B1. Put plainly: abundance fitness (aPCA) (normalised: wild type 0, dead -1); higher = more abundant; growth selection in yeast, the domain comes from the species named. As to conditions: Homo sapiens.
KRLCLVCGDIASGYHYGVASCEACKAFFKRTIQGNIEYSCPATNECEITKRRRKSCQAFRFMKCLKVGMLKEGVRLD [C59F]: the abundance fitness was -0.451 ± 0.18.
Turning to KRLCLVCGDIASGYHYGVASCEACKAFFKRTIQGNIEYSCPATNECEITKRRRKSCQAARFMKCLKVGMLKEGVRLD [C59A], the abundance fitness is -0.686 ± 0.097.
For the variant KRLCLVCGDIASGYHYGVASCEACKAFFKRTIQGNIEYSCPATNECEITKRRRKSCQANRFMKCLKVGMLKEGVRLD [C59N], the abundance fitness is -0.711 ± 0.24.
The value for KRLCLVCGDIASGYHYGVASCEACKAFFKRTIQGNIEYSCPATNECEITKRRRKSCQALRFMKCLKVGMLKEGVRLD [C59L] was -0.873 ± 0.11.
In the case of KRLCLVCGDIASGYHYGVASCEACKAFFKRTIQGNIEYSCPATNECEITKRRRKSCQAKRFMKCLKVGMLKEGVRLD [C59K], the abundance fitness is -0.483 ± 0.12.
Next, KRLCLVCGDIASGYHYGVASCEACKAFFKRTIQGNIEYSCPATNECEITKRRRKSCQAERFMKCLKVGMLKEGVRLD [C59E]: -0.704 ± 0.11.
The value for KRLCLVCGDIASGYHYGVASCEACKAFFKRTIQGNIEYSCPATNECEITKRRRKSCQAIRFMKCLKVGMLKEGVRLD [C59I] was -0.542 ± 0.19; that for KRLCLVCGDIASGYHYGVASCEACKAFFKRTIQGNIEYSCPATNECEITKRRRKSCQAHRFMKCLKVGMLKEGVRLD [C59H] was -0.545 ± 0.18; that for KRLCLVCGDIASGYHYGVASCEACKAFFKRTIQGNIEYSCPATNECEITKRRRKSCQAPRFMKCLKVGMLKEGVRLD [C59P] was -0.688 ± 0.2.
Take KRLCLVCGDIASGYHYGVASCEACKAFFKRTIQGNIEYSCPATNECEITKRRRKSCQAMRFMKCLKVGMLKEGVRLD [C59M]: the abundance fitness is -0.631 ± 0.1.
Next, KRLCLVCGDIASGYHYGVASCEACKAFFKRTIQGNIEYSCPATNECEITKRRRKSCQADRFMKCLKVGMLKEGVRLD [C59D]: -0.513 ± 0.2.
The value for KRLCLVCGDIASGYHYGVASCEACKAFFKRTIQGNIEYSCPATNECEITKRRRKSCQAQRFMKCLKVGMLKEGVRLD [C59Q] was -0.891 ± 0.22; that for KRLCLVCGDIASGYHYGVASCEACKAFFKRTIQGNIEYSCPATNECEITKRRRKSCKACRFMKCLKVGMLKEGVRLD [Q57K] was -0.118 ± 0.067.
The value for KRLCLVCGDIASGYHYGVASCEACKAFFKRTIQGNIEYSCPATNECEITKRRRKSCNACRFMKCLKVGMLKEGVRLD [Q57N] was -0.246 ± 0.087; that for KRLCLVCGDIASGYHYGVASCEACKAFFKRTIQGNIEYSCPATNECEITKRRRKSCAACRFMKCLKVGMLKEGVRLD [Q57A] was -0.018 ± 0.046; that for KRLCLVCGDIASGYHYGVASCEACKAFFKRTIQGNIEYSCPATNECEITKRRRKSCDACRFMKCLKVGMLKEGVRLD [Q57D] was -0.042 ± 0.062.
Regarding KRLCLVCGDIASGYHYGVASCEACKAFFKRTIQGNIEYSCPATNECEITKRRRKSCHACRFMKCLKVGMLKEGVRLD [Q57H], the abundance fitness is -0.347 ± 0.1.
Next, KRLCLVCGDIASGYHYGVASCEACKAFFKRTIQGNIEYSCPATNECEITKRRRKSCVACRFMKCLKVGMLKEGVRLD [Q57V]: -0.213 ± 0.045.
As for KRLCLVCGDIASGYHYGVASCEACKAFFKRTIQGNIEYSCPATNECEITKRRRKSCCACRFMKCLKVGMLKEGVRLD [Q57C], the abundance fitness was -0.152 ± 0.067.
Next, KRLCLVCGDIASGYHYGVASCEACKAFFKRTIQGNIEYSCPATNECEITKRRRKSCIACRFMKCLKVGMLKEGVRLD [Q57I]: -0.633 ± 0.15; KRLCLVCGDIASGYHYGVASCEACKAFFKRTIQGNIEYSCPATNECEITKRRRKSCLACRFMKCLKVGMLKEGVRLD [Q57L]: -0.232 ± 0.046; KRLCLVCGDIASGYHYGVASCEACKAFFKRTIQGNIEYSCPATNECEITKRRRKSCGACRFMKCLKVGMLKEGVRLD [Q57G]: 0.122 ± 0.034.
Turning to KRLCLVCGDIASGYHYGVASCEACKAFFKRTIQGNIEYSCPATNECEITKRRRKSCMACRFMKCLKVGMLKEGVRLD [Q57M], the abundance fitness is -0.221 ± 0.063.
Turning to KRLCLVCGDIASGYHYGVASCEACKAFFKRTIQGNIEYSCPATNECEITKRRRKSCWACRFMKCLKVGMLKEGVRLD [Q57W], the abundance fitness was -0.15 ± 0.049.
As for KRLCLVCGDIASGYHYGVASCEACKAFFKRTIQGNIEYSCPATNECEITKRRRKSCFACRFMKCLKVGMLKEGVRLD [Q57F], the abundance fitness was -0.243 ± 0.089.
Consider KRLCLVCGDIASGYHYGVASCEACKAFFKRTIQGNIEYSCPATNECEITKRRRKSCRACRFMKCLKVGMLKEGVRLD [Q57R], for which the abundance fitness is -0.17 ± 0.042.
Next, KRLCLVCGDIASGYHYGVASCEACKAFFKRTIQGNIEYSCPATNECEITKRRRKSCTACRFMKCLKVGMLKEGVRLD [Q57T]: -0.325 ± 0.067.
For KRLCLVCGDIASGYHYGVASCEACKAFFKRTIQGNIEYSCPATNECEITKRRRKSCPACRFMKCLKVGMLKEGVRLD [Q57P], the abundance fitness was -0.066 ± 0.064.
As for KRLCLVCGDIASGYHYGVASCEACKAFFKRTIQGNIEYSCPATNECEITKRRRKSCSACRFMKCLKVGMLKEGVRLD [Q57S], the abundance fitness was -0.125 ± 0.046.
The value for KRLCLVCGDIASGYHYGVASCEACKAFFKRTIQGNIEYSCPATNECEITKRRRKSCQKCRFMKCLKVGMLKEGVRLD [A58K] was -0.089 ± 0.065.
For KRLCLVCGDIASGYHYGVASCEACKAFFKRTIQGNIEYSCPATNECEITKRRRKSCQYCRFMKCLKVGMLKEGVRLD [A58Y], the abundance fitness is -0.347 ± 0.11.
As to KRLCLVCGDIASGYHYGVASCEACKAFFKRTIQGNIEYSCPATNECEITKRRRKSCQNCRFMKCLKVGMLKEGVRLD [A58N], the abundance fitness was 0.044 ± 0.14.
The value for KRLCLVCGDIASGYHYGVASCEACKAFFKRTIQGNIEYSCPATNECEITKRRRKSCQMCRFMKCLKVGMLKEGVRLD [A58M] was -0.227 ± 0.076; that for KRLCLVCGDIASGYHYGVASCEACKAFFKRTIQGNIEYSCPATNECEITKRRRKSCQTCRFMKCLKVGMLKEGVRLD [A58T] was -0.518 ± 0.12; that for KRLCLVCGDIASGYHYGVASCEACKAFFKRTIQGNIEYSCPATNECEITKRRRKSCQFCRFMKCLKVGMLKEGVRLD [A58F] was -0.377 ± 0.17.

For the origin of these results see the Human Domainome abundance scans (Beltran et al. 2025).
